Experimental data published in article PMC9864772.

Tested on: PTB1 (polypyrimidine-tract-binding protein isoform 1)
Assay: filter binding

HCV 5'UTR RNA
Kd: 242 nM

EMCV 5'UTR RNA
Kd: 127 nM
